Assay results published in the supplement of paper PMC9170038.

Assays:
MS2 coat protein [1] = experiment: apparent KD of MS2 coat protein, switch OFF state (with FMN for OFF switches, without FMN for ON switches); designed switch direction (-1 OFF switch, 1 ON switch): -1; higher = weaker reporter binding; details: FMN input: 0 or 200 uM; Eterna round: R93 (includes R88 designs)
In short: (§1)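 Titrations with SNAP-549-labelled MS2 coat protein ran in twofold steps from 0.7 or 1.5 nM to 3 µM, each step taking 0.8–1.5 h at the start and 10–20 min toward the end. The targets were designed RNA switches transcribed on-chip from Illumina sequencing clusters, held in 100 mM Tris-HCl pH 7.5, 80 mM KCl, 4 mM MgCl2, without or with constant ligand. Apparent KD was taken per design as the median of normalised cluster binding-curve fits.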

MS2 coat protein [2] = experiment: apparent KD of MS2 coat protein, switch ON state; designed switch direction (-1 OFF switch, 1 ON switch): -1; higher = weaker reporter binding; details: FMN input: 0 or 200 uM; Eterna round: R93 (includes R88 designs)
In short: as §1

MS2 coat protein [3] = experiment: apparent KD of MS2 coat protein; designed switch direction (-1 OFF switch, 1 ON switch): 1; higher = weaker reporter binding
In short: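 On Illumina chips, designed RNA switches with common flanks were made by stalled E. coli RNA polymerase. Titrations with SNAP-549-labelled MS2 coat protein, doubling from 0.7 or 1.5 nM to 3 µM, were done with no input, with 200 uM small-molecule ligand, or with an oligonucleotide input. Apparent KD is the median per design over clusters, from curve fits of normalised cluster fluorescence.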

[4] = Eterna round: R95, input ligand: FMN 200 uM
[5] = Eterna round: R95, input ligand: microRNA oligo, concentration not stated
[6] = Eterna round: R95, input ligand: none
[7] = input ligand: microRNA oligo, concentration not stated

| Sequence | apparent KD of MS2 coat protein (MS2 coat protein [1]) [µM] | apparent KD of MS2 coat protein (MS2 coat protein [2]) [µM] | also measured |
| --- | --- | --- | --- |
| AGCUUCAGAGGAUAUACUUGAGUGAUAAAAGUCUGAUAACUACAUGAGGAUCACCCAUGUAGAAGGCUGUAGCA [Ex2 Design 168: Sub-opt 32] | 0.046 | 0.0191 | – |
| UAUAGACAUGAGGAUCACCCAUGUGAGGAUAUCAGUGACUACAGGACAUCACGUACAAUGAGAAGGCACAGAAA [JR_Exc001_Sub015] | 0.0452 | 0.0347 | – |
| AAAAAGUCAGGAUAUGCGAAGGCGUCUGAUAGACGAGGCUAGCAGAAGGGACAUGAGGAUCACCCAUGUAAAAA [Mat - Mod of Nando] | 0.045 | 0.0505 | – |
| AAGAACUCAGGAUAUACAUGAGGAUCACCCAUGUAAAAGAAAGAAAGGGAAAAGAAAAGUAGAAGGGAGAAGAA [Hedjkheperre-setpenre Nesbanebdjed] | 0.0343 | 0.0287 | – |
| GAUAGGCGAGGAUAUACAUGAGGAUCACCCAUGUAAGUAAGCCUGGCUGAAACUGAAUGUAGAAGGCGCAAAUU [Mat - Exclusion 3 - Neo mod - D70] | 0.0677 | 0.0178 | – |
| AACAGUACAGGAUAUACAUGAGGAUCACCCAUGUGGGAGAAAAGAUCGAGAGAUCAAUGUAGAAGGGUACUGGA [JL In the Red 07] | 0.0801 | 0.115 | – |
| AAAAAGUGAGGAUAUACGCUGUGGAGUAGACACAACCAGGCGUAGAAGGCACAUGAGGAUCACCCAUGUCCAAA [EX4 Malc#18] | 0.0441 | 0.0239 | – |
| AAGAAACAUGAGGAUCACCCAUGUAAGGAUAUCUAAAAGAAAAGAAAAGAAAGAAGAAAGAGAAGGUACAAAGG [Nebhetepre Mentuhotep II] | 0.0813 | 0.0873 | – |
| AGUCAUACAGGAUAUACAUGAGGAUCACCCAUGUAAAUCCUAAAAAGAAAAAACUCAUGUAGAAGGGUAUGACA [EX3 223: Super Stable 23] | 0.0392 | 0.0161 | – |
| AAAAAGUCAGGAUAUACAAAAGUGCGAAAGCACAAAAAGGGACAUGAGGAUCACCCAUGUAGAAGGGACAAGAA [Married to this design, 61% 4] | 0.124 | 0.0733 | – |
| AAGAUCAGAGGAUAUACAUAAGGUGAUGGAGACAUCGCCAAACAUGAGGAUCACCCAUGUAGAAGGCUGAUCAA [Mat - Exclusion 2 - JL mod - D62] | 0.0497 | 0.0368 | – |
| GAAAAGUCAGGAUAUGCGAAGGCGUCUGAUAGACGAGGCUAGCAGAAGGGACAUGAGGAUCACCCAUGUGAAAG [Mat - Exclusion 4 - Eli mod - D87] | 0.128 | 0.0546 | – |
| AGAAAGCGAGGAUAUGCACGGGAAGAAAGAAGAGAGAAAAAACAUGAGGAUCACCCAUGUAGAAGGUGUAUAAA [JR_Exc002_Sub1713] | 0.0258 | 0.0384 | – |
| AAGAACUGAGGAUAUACUUUGGGAAAAGAAAAGAUGAUGUUACAUGAGGAUCACCCAUGUAGAAGGCAGAAGAA [Mat - Exclusion 2 - Mod - D153] | 0.037 | 0.027 | – |
| AAAGAUGGAGGAUAUACAUGAGGAUCACCCAUGUGGAAAAAAAAUUGGGAAAAAGAAAGUAGAAGGCCAAAAAA [Ex 3 May 42] | 0.155 | 0.0481 | – |
| AGUUAGCGAGGAUAUACAUGAGGAUCACCCAUGUGAGAGAAAAAAGUGAGAAAGAAAAGUAGAAGGCGCUAACA [Moding Norbert Elias (73)] | 0.119 | 0.0423 | – |
| AAAGGACAUGAGGAUCACCCAUGUGAGGAUAUGCUCUACGAACGAAUACACAUGAGAAGCAGAAGGCACAUAAG [try 1] | 0.142 | 0.0438 | – |
| AAUAAGUGAGGAUAUACUAAAGAAAUGAAAAGGGAUAAAGAACAUGAGGAUCACCCAUGUAGAAGGCACAAUAA ['Aper-'Anat] | 0.0372 | 0.0319 | – |

| Sequence | apparent KD of MS2 coat protein (MS2 coat protein [1]) [µM] | apparent KD of MS2 coat protein (MS2 coat protein [2]) [µM] | also measured |
| --- | --- | --- | --- |
| AGAAAACAUGAGGAUCACCCAUGUCAGGAUAUCUAAAAGAAAAGAAAAGAAAGAAGAAGGAGAAGGGACAAGAA [Djoser] | 0.0218 | 0.0212 | – |
| AAAAAGGCAGGAUAUGCAUACACACAAAAAAAAAAACUGGGACAUGAGGAUCACCCAUGUAGAAGGGCCAAAAA [Dora Explored 8 - Jieux - Exclusion 2] | 0.054 | 0.151 | – |
| AAAAGGGCAGGAUAUGCAUGUUGGCAAAAUUCUCAUCAAACACAUGAGGAUCACCCAUGUAGAAGGGCCAACGG [Inonenonat] | 0.161 | 0.11 | – |
| AAGAAGUGAGGAUAUGUCUGUGCGAAAAAAAAAAAGUGCAGACAGAAGGCACAUGAGGAUCACCCAUGUGGGAA [Florian 65% 6] | 0.0872 | 0.0766 | – |
| GGGUAGGAAUUACAGGAUAUAUAGAAGUUGACAUGAGGAUCACCCAUGUAUGGGUUGGGAGGAGGAUAGAAGGGUAUGAGAGGUG [JR_SS2_Sub032] (puzzle: Same State 2) | – | – | apparent KD of MS2 coat protein (MS2 coat protein [3]; [4]): 0.125 µM; apparent KD of MS2 coat protein (MS2 coat protein [3]; [5]): 0.123 µM; apparent KD of MS2 coat protein (MS2 coat protein [3]; [6]): 0.113 µM |
| CCUAUAGCCACAGGAUAUGAGAACACGUUGAACGUACAUGAGGAUCACCCAUGUCGCCGAUCGACUUAGAAGGGUGGCCCUCGC [Eternabot solution 26] (Eterna round: R96, puzzle: Same State NG 2) | – | – | apparent KD of MS2 coat protein (MS2 coat protein [3]; input ligand: FMN 200 uM): 0.0344 µM; apparent KD of MS2 coat protein (MS2 coat protein [3]; [7]): 0.0379 µM; apparent KD of MS2 coat protein (MS2 coat protein [3]; input ligand: none): 0.0294 µM |
| GUUAAACAUGAGGAUCACCCAUGUAAUAAUAUGGGAGGAUAUGGGAAUUAAUUAAUUAAACCAGAAGGCCUAAUUG [Mat - Same State 1 - D84] (puzzle: Same State 1) | – | – | apparent KD of MS2 coat protein (MS2 coat protein [3]; [4]): 0.0253 µM; apparent KD of MS2 coat protein (MS2 coat protein [3]; [5]): 0.142 µM; apparent KD of MS2 coat protein (MS2 coat protein [3]; [6]): 0.189 µM |
| GGAAAACAUGAGGAUCACCCAUGUGAAAACGUGGGAGGAUAUCGAUGGAAACCAUACUGUCGAGAAGGCCCAUGUC [EteRNA is fun!] (Eterna round: R96, puzzle: Same State 1) | – | – | apparent KD of MS2 coat protein (MS2 coat protein [3]; [7]): 0.0418 µM |
| AGUCCAGCCUGAGCUGGACAAAAGCAUGUACAUGAGGAUCACCCAUGUUCAUGUACAAGCUUUUUGCUCGUCUUGCG [salish99_208a_r3_106x] (puzzle: Sensor for hsa-mir-208a) | – | – | apparent KD of MS2 coat protein (MS2 coat protein [3]; [4]): 0.641 µM; apparent KD of MS2 coat protein (MS2 coat protein [3]; [5]): 0.0173 µM; apparent KD of MS2 coat protein (MS2 coat protein [3]; [6]): 0.867 µM |
| AGUCCAGCCUGAGCUGGACAAAAGCAUGUACAUGAGGAUCACCCAUGUCAUGUACAAGCUUUUUGCUCGUCUUAAUA [JL zipper 49] (Eterna round: R96, puzzle: Sensor for hsa-mir-208a) | – | – | apparent KD of MS2 coat protein (MS2 coat protein [3]; input ligand: FMN 200 uM): 0.6 µM; apparent KD of MS2 coat protein (MS2 coat protein [3]; [7]): 0.0162 µM; apparent KD of MS2 coat protein (MS2 coat protein [3]; input ligand: none): 0.471 µM |
| AUUUUUGAUGCAGGAUAUGAUUAACAUGAGGAUCACCCAUGUGGUGUUGUGAGUAAGGAGAGUGAUCAGAAGGGCAUUUUUUUU [JMF's solution 93] (Eterna round: R96, puzzle: Same State NG 2) | – | – | apparent KD of MS2 coat protein (MS2 coat protein [3]; input ligand: FMN 200 uM): 0.81 µM; apparent KD of MS2 coat protein (MS2 coat protein [3]; [7]): 0.269 µM; apparent KD of MS2 coat protein (MS2 coat protein [3]; input ligand: none): 0.365 µM |
| GGUAGGUUACUACCAACACAUGAGGAUCACCCAUGUUAGUGGGAGGAUAUGGUACCUAUUUGGUACCAGAAGGCCUUGUUAAUU [Fiskers NG3ss - 14] (Eterna round: R96, puzzle: Same State NG 3) | – | – | apparent KD of MS2 coat protein (MS2 coat protein [3]; input ligand: FMN 200 uM): 0.0437 µM; apparent KD of MS2 coat protein (MS2 coat protein [3]; [7]): 0.0628 µM; apparent KD of MS2 coat protein (MS2 coat protein [3]; input ligand: none): 0.0876 µM |
| GUGCGAGUGCCACAGGAUAUACGUGGAUCGACAUGAGGAUCACCCAUGUAUAUCCUAAUAAUUGCGUAGAAGGGUGGUCAGUCGG [Inzage] (Eterna round: R96, puzzle: Same State 2) | – | – | apparent KD of MS2 coat protein (MS2 coat protein [3]; input ligand: FMN 200 uM): 0.164 µM; apparent KD of MS2 coat protein (MS2 coat protein [3]; [7]): 0.313 µM; apparent KD of MS2 coat protein (MS2 coat protein [3]; input ligand: none): 0.478 µM |
| CUCUUACAUGAGGAUCACCCAUGUGUUGUCGUGGGAGGAUAUCCUGGUUCGGUGGCGUUGGGAGAAGGCCUAUGUC [× ×•×ª×• ×ž×“×™× ×” × ×—×ª-18] (puzzle: Same State 1) | – | – | apparent KD of MS2 coat protein (MS2 coat protein [3]; [5]): 0.378 µM |
| GGUCGGACUCACAUGAGGAUCACCCAUGUUGGCGAAAGCCGGCAGGAUAUCUGUCCGAAAAGGUCAGAGAAGGGCUAACCGACC [Fiskers NG3ss - 60] (Eterna round: R96, puzzle: Same State NG 3) | – | – | apparent KD of MS2 coat protein (MS2 coat protein [3]; input ligand: FMN 200 uM): 0.0657 µM; apparent KD of MS2 coat protein (MS2 coat protein [3]; [7]): 0.186 µM; apparent KD of MS2 coat protein (MS2 coat protein [3]; input ligand: none): 0.188 µM |
| GAGAGAGGGUGAGGAUAUUUAGUGAUAAUGAUAGGAGAAGGCACAGACAUGAGGAUCACCCAUGUGGGAAUAAUCCAGAGAGAG [Parity 9 - Jieux - Same State NG 1] (Eterna round: R96, puzzle: Same State NG 1) | – | – | apparent KD of MS2 coat protein (MS2 coat protein [3]; input ligand: FMN 200 uM): 0.199 µM; apparent KD of MS2 coat protein (MS2 coat protein [3]; [7]): 0.0319 µM; apparent KD of MS2 coat protein (MS2 coat protein [3]; input ligand: none): 0.186 µM |
| UUUAGUUGCGGGCAGGAUAUGUAUUAAAAUACAUGAGGAUCACCCAUGUGAGGUCAUAAAGACCUACAGAAGGGCCAAUCGCGAC [Laonerce - 16] (puzzle: Same State 2) | – | – | apparent KD of MS2 coat protein (MS2 coat protein [3]; [4]): 0.0165 µM; apparent KD of MS2 coat protein (MS2 coat protein [3]; [5]): 0.0648 µM; apparent KD of MS2 coat protein (MS2 coat protein [3]; [6]): 0.0662 µM |
| GAAAAGACAUGAGGAUCACCCAUGUGGUAGACAGCUAGACGCAAGGAUAUGCAUGUGAUUCUCAUGCAGAAGGUGCUUCUAGGU [Eternabot solution 12] (Eterna round: R96, puzzle: Same State NG 3) | – | – | apparent KD of MS2 coat protein (MS2 coat protein [3]; input ligand: FMN 200 uM): 0.0376 µM; apparent KD of MS2 coat protein (MS2 coat protein [3]; [7]): 0.0533 µM; apparent KD of MS2 coat protein (MS2 coat protein [3]; input ligand: none): 0.0686 µM |
